Patent US20200408769A1
Each block holds one substance with its values, some of them ahead of it.

How the values were obtained:
Assay in all cases: cell-based or functional assay
[1] = biological target: TM4SF1 (Transmembrane 4 L six family member 1) (human) (UniProt P30408)
[2] = biological target: TNFRSF12A (TNF receptor superfamily member 12A) (human) (UniProt Q9NP84)
[3] = biological target: SDC1 (Syndecan 1) (human) (UniProt P18827)
[4] = biological target: EpCAM (Epithelial Cell Adhesion Molecule) (human) (UniProt P16422)
Sequence of UniProt P16422 (P16422 24-314): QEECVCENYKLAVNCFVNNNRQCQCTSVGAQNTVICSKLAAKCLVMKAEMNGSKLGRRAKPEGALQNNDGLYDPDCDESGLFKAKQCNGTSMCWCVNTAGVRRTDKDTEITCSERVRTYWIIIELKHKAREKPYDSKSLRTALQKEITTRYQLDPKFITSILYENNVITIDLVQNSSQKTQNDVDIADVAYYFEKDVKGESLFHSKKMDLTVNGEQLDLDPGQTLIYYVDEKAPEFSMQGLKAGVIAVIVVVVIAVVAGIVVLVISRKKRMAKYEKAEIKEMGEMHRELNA

Sequence of UniProt P30408 (P30408 whole entry): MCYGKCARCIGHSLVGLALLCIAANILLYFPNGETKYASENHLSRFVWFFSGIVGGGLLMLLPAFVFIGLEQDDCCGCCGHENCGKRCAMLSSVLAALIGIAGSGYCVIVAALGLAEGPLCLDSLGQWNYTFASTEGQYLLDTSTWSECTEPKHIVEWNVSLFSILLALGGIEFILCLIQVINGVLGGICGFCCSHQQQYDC
Sequence of UniProt Q9NP84 (Q9NP84 28-129 limits assumed): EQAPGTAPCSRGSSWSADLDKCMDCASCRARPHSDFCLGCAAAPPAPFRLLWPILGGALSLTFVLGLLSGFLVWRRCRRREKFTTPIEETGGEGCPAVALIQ
Sequence of UniProt P18827 (P18827 23-310 L136Q limits assumed): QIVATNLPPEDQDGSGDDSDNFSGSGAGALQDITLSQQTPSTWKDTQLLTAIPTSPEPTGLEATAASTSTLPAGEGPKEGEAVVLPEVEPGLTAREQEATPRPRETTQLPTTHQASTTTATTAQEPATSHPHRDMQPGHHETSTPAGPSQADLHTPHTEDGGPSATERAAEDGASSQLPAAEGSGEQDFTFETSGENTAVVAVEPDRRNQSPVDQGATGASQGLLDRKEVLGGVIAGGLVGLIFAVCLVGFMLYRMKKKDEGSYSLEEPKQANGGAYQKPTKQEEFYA

PANC1 cell collection ratio [%] [1]: 66%
PC3 cell collection ratio [%] [1]: 76%
Substance: anti-TM4SF1 antibody (Human TM4SF1 Phycoerythrin MAb, R&D systems)

PANC1 cell collection ratio [%] [2]: 74.1%
PC3 cell collection ratio [%] [2]: 48%
Substance: anti-TNFRSF12A antibody (PE anti-human CD266 (Fn14, TWEAK R) Antibody, Biolegend)

PC3 cell collection ratio [%] [3]: 64%
Substance: anti-SDC1 antibody (PE-anti-human SDC1 Antibody, Biolegend)

PANC1 cell collection ratio [%] [4]: 49%
PC3 cell collection ratio [%] [4]: 42%
Substance: anti-EpCAM antibody (PE-anti-human EpCAM Antibody, Miltenyi Biotec)
